Read-outs that look alike come from different tables or passages of the source.
Columns and labels:
[1] = target: SARS-CoV-2 RBD (Wuhan-1) (SARS-CoV-2, Wuhan-1) (UniProt P0DTC2); experiment: SPR
[2] = target: SARS-CoV-2 RBD (Wuhan-1) (SARS-CoV-2, Wuhan-1) (UniProt P0DTC2); experiment: SPR; remark: listed apart in the source

CC12.1 (antibody)
kon [1]: 696000 M⁻¹ s⁻¹ | Kd [2]: 5.92 nM | koff [2]: 0.00412 s⁻¹ | kon [2]: 695000 M⁻¹ s⁻¹

Source: publication PMC9367177
